Assay results reported in article doi:10.1101/2025.07.31.667833.

Target: Spef1 K204Q/K206Q/R207Q/R215Q/R218Q mutant (full-length) (mouse) (UniProt Q99JL1)
Test: SEC-MALS

stoichiometry N: 2
Substance: Spef1 K204Q/K206Q/R207Q/R215Q/R218Q mutant (full-length) (from UniProt Q99JL1 1-234) (natural protein)
